The text below walks through data of publication doi:10.1101/2021.09.22.461404 (bioRxiv, 2021).

One may read the stoichiometry N as a count of units in the complex or per binding partner.

This data set concerns the molecule itself. Description: crystal structure.

B1: closed-gate E71V KcsA (C-terminal tail removed by chymotrypsin) (domain or fragment)
chain: PMLSGLLARLVKLLLGRHGSALHWRAAGAATVLLVIVLLAGSYLAVLAERGAPGAQLITYPRALWWSVVTATTVGYGDLYPVTLWGRLVAVVVMVAGITSFGLVTAALATWFVGREQERRGH
With B1, the “stoichiometry N” value was determined as 4.
